Assay results as given in PMC3925836 (Advanced healthcare materials, 2013).
Residue numbers refer to the chain shown, from its start.

T1: GPRP-P40-I60-C
T1 chain: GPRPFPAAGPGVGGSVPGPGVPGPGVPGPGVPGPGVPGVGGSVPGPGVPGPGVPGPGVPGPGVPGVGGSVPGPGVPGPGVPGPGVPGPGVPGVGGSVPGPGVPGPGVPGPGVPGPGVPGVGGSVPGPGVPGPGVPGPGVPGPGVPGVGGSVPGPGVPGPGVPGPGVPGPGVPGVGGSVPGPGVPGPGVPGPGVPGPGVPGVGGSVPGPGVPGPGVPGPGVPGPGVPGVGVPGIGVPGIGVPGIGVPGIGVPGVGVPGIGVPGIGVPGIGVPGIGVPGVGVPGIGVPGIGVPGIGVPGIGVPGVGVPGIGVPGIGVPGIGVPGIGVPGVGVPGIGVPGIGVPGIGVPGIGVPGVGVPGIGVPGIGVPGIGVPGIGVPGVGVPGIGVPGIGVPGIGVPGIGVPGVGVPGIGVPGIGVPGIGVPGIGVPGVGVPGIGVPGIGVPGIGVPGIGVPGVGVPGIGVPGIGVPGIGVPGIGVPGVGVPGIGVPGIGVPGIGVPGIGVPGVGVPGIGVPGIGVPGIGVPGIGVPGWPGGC

T2: GPRP-A80-I60-C
T2 chain: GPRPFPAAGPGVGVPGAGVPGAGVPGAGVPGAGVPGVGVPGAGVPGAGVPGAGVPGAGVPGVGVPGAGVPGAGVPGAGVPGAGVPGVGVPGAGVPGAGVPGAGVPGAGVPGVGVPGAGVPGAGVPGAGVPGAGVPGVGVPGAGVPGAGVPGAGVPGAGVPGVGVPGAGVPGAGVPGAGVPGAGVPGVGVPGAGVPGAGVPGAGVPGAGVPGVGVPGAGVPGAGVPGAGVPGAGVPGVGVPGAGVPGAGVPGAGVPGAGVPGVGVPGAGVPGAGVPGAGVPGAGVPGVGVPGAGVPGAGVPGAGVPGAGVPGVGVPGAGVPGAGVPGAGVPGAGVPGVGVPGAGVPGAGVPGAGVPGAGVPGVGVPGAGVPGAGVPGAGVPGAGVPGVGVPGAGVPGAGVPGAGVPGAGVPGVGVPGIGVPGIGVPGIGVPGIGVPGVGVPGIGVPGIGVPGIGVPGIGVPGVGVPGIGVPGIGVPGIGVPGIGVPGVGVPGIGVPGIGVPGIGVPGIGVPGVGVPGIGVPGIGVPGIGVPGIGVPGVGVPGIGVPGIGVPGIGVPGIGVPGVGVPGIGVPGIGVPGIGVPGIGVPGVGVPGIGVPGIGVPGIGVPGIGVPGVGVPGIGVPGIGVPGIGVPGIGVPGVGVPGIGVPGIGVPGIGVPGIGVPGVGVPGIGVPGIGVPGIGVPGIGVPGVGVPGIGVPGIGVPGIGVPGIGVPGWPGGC

T3: GPSP-P40-I60
T3 chain: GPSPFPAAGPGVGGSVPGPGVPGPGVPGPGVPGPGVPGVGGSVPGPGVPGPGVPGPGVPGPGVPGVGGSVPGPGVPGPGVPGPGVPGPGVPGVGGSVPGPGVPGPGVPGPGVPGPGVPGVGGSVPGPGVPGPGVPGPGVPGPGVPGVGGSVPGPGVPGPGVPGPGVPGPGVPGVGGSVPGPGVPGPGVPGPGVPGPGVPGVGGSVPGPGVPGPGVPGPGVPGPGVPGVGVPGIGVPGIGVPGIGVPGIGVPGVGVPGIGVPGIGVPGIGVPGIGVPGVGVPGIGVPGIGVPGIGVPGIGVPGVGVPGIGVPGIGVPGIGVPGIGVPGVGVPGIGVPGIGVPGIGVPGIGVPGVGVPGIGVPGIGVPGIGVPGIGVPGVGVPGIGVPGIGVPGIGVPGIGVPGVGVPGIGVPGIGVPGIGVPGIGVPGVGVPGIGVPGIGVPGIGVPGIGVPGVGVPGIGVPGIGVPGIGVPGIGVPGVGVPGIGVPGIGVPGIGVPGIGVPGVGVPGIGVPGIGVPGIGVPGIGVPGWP

B1: fibrinogen, P02671 36-866; P02675 45-491; P02679 27-453 (complex)
chain 1: ADSGEGDFLAEGGGVRGPRVVERHQSACKDSDWPFCSDEDWNYKCPSGCRMKGLIDEVNQDFTNRINKLKNSLFEYQKNNKDSHSLTTNIMEILRGDFSSANNRDNTYNRVSEDLRSRIEVLKRKVIEKVQHIQLLQKNVRAQLVDMKRLEVDIDIKIRSCRGSCSRALAREVDLKDYEDQQKQLEQVIAKDLLPSRDRQHLPLIKMKPVPDLVPGNFKSQLQKVPPEWKALTDMPQMRMELERPGGNEITRGGSTSYGTGSETESPRNPSSAGSWNSGSSGPGSTGNRNPGSSGTGGTATWKPGSSGPGSTGSWNSGSSGTGSTGNQNPGSPRPGSTGTWNPGSSERGSAGHWTSESSVSGSTGQWHSESGSFRPDSPGSGNARPNNPDWGTFEEVSGNVSPGTRREYHTEKLVTSKGDKELRTGKEKVTSGSTTTTRRSCSKTVTKTVIGPDGHKEVTKEVVTSEDGSDCPEAMDLGTLSGIGTLDGFRHRHPDEAAFFDTASTGKTFPGFFSPMLGEFVSETESRGSESGIFTNTKESSSHHPGIAEFPSRGKSSSYSKQFTSSTSYNRGDSTFESKSYKMADEAGSEADHEGTHSTKRGHAKSRPV
chain 2: QGVNDNEEGFFSARGHRPLDKKREEAPSLRPAPPPISGGGYRARPAKAAATQKKVERKAPDAGGCLHADPDLGVLCPTGCQLQEALLQQERPIRNSVDELNNNVEAVSQTSSSSFQYMYLLKDLWQKRQKQVKDNENVVNEYSSELEKHQLYIDETVNSNIPTNLRVLRSILENLRSKIQKLESDVSAQMEYCRTPCTVSCNIPVVSGKECEEIIRKGGETSEMYLIQPDSSVKPYRVYCDMNTENGGWTVIQNRQDGSVDFGRKWDPYKQGFGNVATNTDGKNYCGLPGEYWLGNDKISQLTRMGPTELLIEMEDWKGDKVKAHYGGFTVQNEANKYQISVNKYRGTAGNALMDGASQLMGENRTMTIHNGMFFSTYDRDNDGWLTSDPRKQCSKEDGGGWWYNRCHAANPNGRYYWGGQYTWDMAKHGTDDGVVWMNWKGSWYSMRKMSMKIRPFFPQQ
chain 3: YVATRDNCCILDERFGSYCPTTCGIADFLSTYQTKVDKDLQSLEDILHQVENKTSEVKQLIKAIQLTYNPDESSKPNMIDAATLKSRKMLEEIMKYEASILTHDSSIRYLQEIYNSNNQKIVNLKEKVAQLEAQCQEPCKDTVQIHDITGKDCQDIANKGAKQSGLYFIKPLKANQQFLVYCEIDGSGNGWTVFQKRLDGSVDFKKNWIQYKEGFGHLSPTGTTEFWLGNEKIHLISTQSAIPYALRVELEDWNGRTSTADYAMFKVGPEADKYRLTYAYFAGGDAGDAFDGFDFGDDPSDKFFTSHNGMQFSTWDNDNDKFEGNCAEQDGSGWWMNKCHAGHLNGVYYQGGTYSKASTPNGYDNGIIWATWKTRWYSMKKTTMKIIPFNRLTIGEGQQHHLGGAKQAGDV
modifications: not checked
B2: GPRP-A80-I60 (designed binder)
chain: GPRPFPAAGPGVGVPGAGVPGAGVPGAGVPGAGVPGVGVPGAGVPGAGVPGAGVPGAGVPGVGVPGAGVPGAGVPGAGVPGAGVPGVGVPGAGVPGAGVPGAGVPGAGVPGVGVPGAGVPGAGVPGAGVPGAGVPGVGVPGAGVPGAGVPGAGVPGAGVPGVGVPGAGVPGAGVPGAGVPGAGVPGVGVPGAGVPGAGVPGAGVPGAGVPGVGVPGAGVPGAGVPGAGVPGAGVPGVGVPGAGVPGAGVPGAGVPGAGVPGVGVPGAGVPGAGVPGAGVPGAGVPGVGVPGAGVPGAGVPGAGVPGAGVPGVGVPGAGVPGAGVPGAGVPGAGVPGVGVPGAGVPGAGVPGAGVPGAGVPGVGVPGAGVPGAGVPGAGVPGAGVPGVGVPGAGVPGAGVPGAGVPGAGVPGVGVPGIGVPGIGVPGIGVPGIGVPGVGVPGIGVPGIGVPGIGVPGIGVPGVGVPGIGVPGIGVPGIGVPGIGVPGVGVPGIGVPGIGVPGIGVPGIGVPGVGVPGIGVPGIGVPGIGVPGIGVPGVGVPGIGVPGIGVPGIGVPGIGVPGVGVPGIGVPGIGVPGIGVPGIGVPGVGVPGIGVPGIGVPGIGVPGIGVPGVGVPGIGVPGIGVPGIGVPGIGVPGVGVPGIGVPGIGVPGIGVPGIGVPGVGVPGIGVPGIGVPGIGVPGIGVPGVGVPGIGVPGIGVPGIGVPGIGVPGWP
B3: GPSP-A80-I60 (designed binder)
chain: B2 chain with R3S
B4: GPRP-P40-I60 (designed binder)
chain: T3 chain with S3R

Assays:
[1] = molecular target: T1, GPRP-P40-I60-C; test: ELISA
[2] = molecular target: T2, GPRP-A80-I60-C; test: ELISA
[3] = molecular target: T3, GPSP-P40-I60; test: SYPRO Orange thermal transition assay
[4] = molecular target: the molecule itself; test: dynamic light scattering

Row | Binder | % normalized signal (GPRPFPAC-coated wells = 100 %), saturated wells [1] [%] | % normalized signal (GPRPFPAC-coated wells = 100 %), saturated wells [2] [%] | binding result [3] | binding result [4]
1 | B1 | > 100 | > 100 |  | 
2 | B2 |  |  | binds | 
3 | B3 |  |  | binds | binds
4 | B4 |  |  |  | binds
